From patent US8445275B2, “Induction of dendritic cell development with macrophage-colony stimulating factor (M-CSF)” (Bavarian Nordic A/S, priority 2007, dated 2013)

Tests used:
M-pDC = test: Activation and cytokine production of sorted M-pDC by TLR ligands; type: cell-based, mouse; details: TLR2 ligand 1 μg/ml, 18 hrs
Method: Activation of DC subsets and analysis of cytokine production by ELISA—Unsorted M-CSF or FL BM cultures or sorted DCs (0.25−0.5×10^6 cells/ml) were stimulated for 18-24 hrs in complete media with or without an added stimulus. The stimuli used were as follows: 1 μg/ml Pam-3-Cys, 100 μg/ml poly(I:C), 1 μg/ml LPS, 1 μg/ml R837, 1 mM Loxoribine, 0.5 μM CpG2216, 0.5 μM CpG1668. Culture supernatants were assayed for the presence of IFN-α by two-site ELISA as previously described (21). Other cytokines (IL-12 p70, IL-6, TNF-α, MCP-1 and IFN-γ) were measured using the Cytometric Bead Array, Mouse Inflammation Kit (Becton Dickinson). Stimulated DCs were blocked as stated above and stained with antibodies directed to CD8a, CD40, CD69, CD80 and CD86.
The survival of the M-pDC to these stimuli was extremely poor (<5%), data not shown.
Similar to FL-pDCs and ex-vivo pDCs, sorted M-pDC were activated with ligands for TLR7 and 9, as indicated by elevated expression of CD8a, CD69, CD86 and CD40 (FIG. 3B and data not shown). M-pDC only produced detectable cytokines to TLR7 and 9 ligands (FIG. 3C and data not shown). In response to a type A CpG-ODN (CpG2216) M-pDCs produced high levels of IFN-α (FIG. 3C). […] The production of IL-10, IL-12p70, MCP-1 and IFN-γ by the M-pDC was also tested but none of these cytokines were detected.

[1] = tested on: FL cultures (FL-DC generation, Flt3); test: Inhibitor effect on cell numbers in FL BM cultures (FL-DC generation); type: cell-based, mouse; details: range of concentrations
Method: FIG. 4 and FIG. 8. The generation of M-DC is inhibited by a c-FMS inhibitor. Replicate M-CSF and FL cultures were conducted in parallel in the presence or absence of a range of A: cFMS Receptor Tyrosine Kinase Inhibitor or B: Flt3 Inhibitor concentrations. At the end of the culture period all cells were counted. The number of cells harvested from cultures without inhibitor was set at 100%. Cells from cultures containing inhibitor were expressed as a percentage of cells obtained in the absence of inhibitor. The data shown in each panel are from one experiment each, representative of 2 experiments carried out for each of the inhibitors.
(§1) M-CSF and FL BM cultures—BM cells were flushed from femurs and tibiae of mice. Red cell lysis buffer (Sigma-Aldrich) was used to deplete red blood cells from the BM cell suspensions. BM cells were then either cultured directly or after depletion. To deplete, BM cells were incubated for 30 min with rat antibodies to CD11c and CD45R (B220) followed by 30 min incubation with goat anti-rat magnetic beads (Qiagen, Hilden, Germany). The depletion procedure routinely removed 65-80% of total BM cells. It should be noted that depletion with the beads only, in the absence of the rat antibodies, also depleted about 50% of the BM cells, presumably via FcR/Ig interactions. […]

[2] = tested on: mouse bone marrow (BM) cells; test: IFN-α production of M-CSF BM cultures in response to CpG-2216 (ELISA); type: cell-based
Method: as §1, with “interactions. Total BM cells or depleted BM cells were cultured at 1.5×10^6 cells/ml in RPMI-1640 media (Gibco) supplemented with 10% FCS, 50 μM beta-mercaptoethanol, 100 IU/ml penicillin/streptomycin (complete media) and either 20 ng/ml recmuM-CSF or rechu-MCSF or 35 ng/ml recmuFL for 6-8 days at 37° C. in a humidified atmosphere containing 5% CO2.” for “interactions.”
Activation of DC subsets and analysis of cytokine production by ELISA—Unsorted M-CSF or FL BM cultures or sorted DCs (0.25−0.5×10^6 cells/ml) were stimulated for 18-24 hrs in complete media with or without an added stimulus. […] Other cytokines (IL-12 p70, IL-6, TNF-α, MCP-1 and IFN-γ) were measured using the Cytometric Bead Array, Mouse Inflammation Kit (Becton Dickinson). […]

[3] = tested on: BM cells depleted of B220+ and CD11c+ cells; test: pDC/cDC development in M-CSF BM cultures (CD11c/CD45RA staining); type: cell-based, mouse
Method: M-CSF and FL BM cultures—BM cells were flushed from femurs and tibiae of mice. Red cell lysis buffer (Sigma-Aldrich) was used to deplete red blood cells from the BM cell suspensions. BM cells were then either cultured directly or after depletion. To deplete, BM cells were incubated for 30 min with rat antibodies to CD11c and CD45R (B220) followed by 30 min incubation with goat anti-rat magnetic beads (Qiagen, Hilden, Germany). The depletion procedure routinely removed 65-80% of total BM cells. It should be noted that depletion with the beads only, in the absence of the rat antibodies, also depleted about 50% of the BM cells, presumably via FcR/Ig interactions. Total BM cells or depleted BM cells were cultured at 1.5×10^6 cells/ml in RPMI-1640 media (Gibco) supplemented with 10% FCS, 50 μM beta-mercaptoethanol, 100 IU/ml penicillin/streptomycin (complete media) and either 20 ng/ml recmuM-CSF or rechu-MCSF or 35 ng/ml recmuFL for 6-8 days at 37° C. in a humidified atmosphere containing 5% CO2. The M-CSF cultures were fed with fresh M-CSF every 3 days, without media change.
Surface staining of M-CSF or FL BM cultures—Harvested cells were washed in PBS containing 2% FCS and 2 mM EDTA (FACS buffer). FcR binding was then blocked by incubation with 1 mg/ml purified anti CD16/32 monoclonal antibody (clone 2.4G2) for 20 mins on ice. An equal volume of 2× concentrated specific antibody stain was then added to the cell suspension and incubated for a further 20 mins. Cells were washed in FACS buffer and resuspended in FACS buffer containing 1 μg/ml propidium iodide.
Indeed, a population of 10-20% of cells within the cultures expressed high levels of CD45RA and medium levels of CD11c, together with the lack of CD3, CD19 or CD49b or NK1.1 expression, low side scatter and forward scatter this was commensurate with the phenotype of pDCs (FIG. 1B and data not shown).
It was clear that M-CSF could drive pDC development yet the yield of pDCs was substantially less then that obtained with FL. […]

C57BL/6 or FLKO mice = test: In vivo M-CSF treatment, DC numbers in spleen and peritoneal lavage; design: species or system mouse
Method: In vivo M-CSF treatment—Wild type and FLKO mice were treated ip with 10 μg of M-CSF in 0.01% BSA (100 μl volume), or with vehicle alone, for five consecutive days. At the end of five days mice were sacrificed. The peritoneum was flushed 3 times with Complete media and then organs were collected for DC purification.
Ex vivo DC purification—DCs were purified from spleens of M-CSF or vehicle treated mice essentially as previously described (21), using FACS buffer, RPMI and 1.077A Nycodenz (Progen Biotechnik GmbH, Heidelberg, Germany) that was adjusted to mouse osmolarity (308 mOsm).
Specifically cDC were reduced about 2-fold and pDC about 3-fold. This was substantially less of an effect than that seen in mice lacking FL but nevertheless, lack of M-CSF did result in reduced DC numbers, further substantiating the assumption that M-CSF is a DC poietin. To further validate the studies initiated by MacDonald et al (2005), M-CSF was administered to mice in order to analyze whether M-CSF could actually increase DC numbers in vivo. According to other references in the prior art, a range of exogenous M-CSF concentrations in the range of 10 to 200 μg/day has been administered. The source of M-CSF used has varied widely and consequently, as well as the specific activity. It is thus impossible to gauge an optimal or saturating level of M-CSF to administer. Moreover, it has been reported that M-CSF has an extremely short half-life of only 10 mins in the circulation^28. Due to the prohibitive cost of commercial M-CSF with a determined specific activity a ‘proof of principal’ trial experiment was conducted and 10 μg/day of M-CSF to C57BL/6 or FLKO mice for 5 days were administered. This amount was neither titrated nor was it attempted to extend the application period. […] Said observations indicate that M-CSF indeed was inducing an effect in vivo.

[4] = tested on: CMP, CLP, GMP from C57BL/6 BM; test: M-CSF cultures of purified progenitors (CMP, CLP, GMP) spiked into UBC-GFP BM cells; type: cell-based, mouse; details: M-CSF culture 6 days
Method: CMP (Lin^−Sca-1^−ckit^+CD34^+FcR^int), CLP (Lin^−Sca-1^+c-kit^intIL-7R^+Thy-1^−) or granulocyte/macrophage progenitors (GMP, Lin^−Sca-1^−c-kit^+CD34^+FcR^hi) were isolated from C57BL/6 BM as previously described^21 and sorted to greater than 95% purity on a FACS-ARIA instrument. 2500 cells and serial 2-fold dilutions thereof were added to a 1 ml suspension of UBC-GFP BM cells in a 24-well plate. Final UBC-GFP BM cell concentration was 1.0×10^6 cells/ml. M-CSF or FL cultures were carried out in these wells as described above. After 6 days, samples were enumerated, analysed by FACS, and progeny arising from the C57BL/6 progenitors were gated as GFP^neg cells. To analyse M-CSFR (CD115) and Flt3 (CD135) expression on CLP (Lin^−Sca-1^+c-kit^intIL-7R^+Thy-1^−), lineage depleted cells were first stained with Sca-1-FITC and Thy-1-PE antibodies and the Sca-1^+Thy-1^− cells were sorted. These pre-enriched cells (>95% purity when reanalysed) were then stained with CD117-PE-CY7, IL-7R-APC and either CD115-PE or CD135-PE.
The identification of DC subtypes that could be generated in the absence of FL both in vivo and in vitro immediately raises the question of the nature of their precursor cells. It has been considered whether this factor acts on an early lineage progenitor or, since M-CSF is traditionally considered a ‘myeloid’ growth factor, on a later precursor within the myeloid lineage to generate M-DC. CMP, GMP and CLP were purified from mouse BM. Serial dilutions of the purified cell populations were admixed with ‘feeder’ UBC-GFP BM cells and M-CSF cultures were carried out for 6 days.

[5] = reported in the literature; cited from earlier work
[6] = 10 μg/day ip for 5 days, C57BL/6 and FLKO mice, vs vehicle

## palmitoyl-3-cysteine-serine-lysine-4 [Pam-3-Cys]
M-pDC
  surface activation of M-pDC: very minor surface activation

## Flt3 Inhibitor II
[1]
  effect on generation of FL-DC: highly inhibitory

B1: M-CSF: Recombinant murine or human Macrophage-Colony Stimulating Factor obtained from Tebu-Bio / R&D Systems (protein, UniProt P09603 33-554, looked up)
Macrophage colony-stimulating …: EEVSEYCSHMIGSGHLQSLQRLIDSQMETSCQITFEFVDQEQLKDPVCYLKKAFLLVQDIMEDTMRFRDNTPNAIAIVQLQELSLRLKSCFTKDYEEHDKACVRTFYETPLQLLEKVKNVFNETKNLLDKDWNIFSKNCNNSFAECSSQDVVTKPDCNCLYPKAIPSSDPASVSPHQPLAPSMAPVAGLTWEDSEGTEGSSLLPGEQPLHTVDPGSAKQRPPRSTCQSFEPPETPVVKDSTIGGSPQPRPSVGAFNPGMEDILDSAMGTNWVPEEASGEASEIPVPQGTELSPSRPGGGSMQTEPARPSNFLSASSPLPASAKGQQPADVTGTALPRVGPVRPTGQDWNHTPQKTDHPSALLRDPPEPGSPRISSLRPQGLSNPSTLSAQPQLSRSHSSGSVLPLGELEGRRSTRDRRSPAEPEGGPASEGAARPLPRFNSVPLTDTGHERQSEGSFSPQLQESVFHLLVPSVILVLLAVGGLLFYRWRRRSHQEPQRADSPLEQPEGSPLTQDDRQVELPV
[2]; DC-depleted BM cells cultured with M-CSF for 6 days, non-adherent cells
  CpG-induced IFN-α producing capacity: potent IFN-α producing capacity was detected again
[2]; total BM cells cultured with M-CSF, 0-7 days, adherent and non-adherent cells
  IFN-α production in response to CpG-2216: high levels
[3]; FLKO BM depleted of DC, exogenous M-CSF only
  pDC development in BM cultures from FLKO mice: pDCs developed even in the absence of FL
[3]; non-adherent M-CSF-generated cells, day 6
  population of cells with pDC phenotype (CD45RA high, CD11c medium) within the cultures: 10-20%
[3]; side by side after six days of culture, less efficient than FL
  efficiency of pDC yield compared with FL: approximately 10 fold
C57BL/6 or FLKO mice; 10 μg/day for 5 days, a C57BL/6 mouse, data not shown
  increase of cells that resembled DC in the peritoneal lavage: greater than 6 fold
C57BL/6 or FLKO mice; 10 μg/day for 5 days, data not shown
  F4/80hi cells in peritoneal lavages: huge increase
C57BL/6 or FLKO mice; 10 μg/day ip for 5 days
  total splenocytes: did not induce an increase
C57BL/6 or FLKO mice; [6]
  increase in cDC numbers in the spleen: about 2 fold
  increase in pDC numbers in the spleen: about 2 fold
[4]; CLP
  output of M-cDC per input progenitor cell: about 5
  output of M-pDC per input progenitor cell: at least 10
[4]; CMP
  output of M-cDC per input progenitor cell: 8-10
[4]; GMP
  M-DC production from progenitors: not capable of M-DC production
[5]
  half-life in the circulation: 10 min
